B1: Cyclin-dependent kinase inhibitor 2A (Homo sapiens), P42771 (parent)
chain: MEPAAGSSMEPSADWLATAAARGRVEEVRALLEAGALPNAPNSYGRRPIQVMMMGSARVAELLLLHGAEPNCADPATLTRPVHDAAREGFLDTLVVLHRAGARLDVRDAWGRLPVDLAEELGHRDVARYLRAAAGGTRGSNHARIDAAEGPSDIPD

Legend:
cdk4_human CDK4, P11802 [1] = variants of: B1; settings: with cdk4_human CDK4, P11802
cdk4_human CDK4, P11802 [2] = variants of: B1; settings: with cdk4_human CDK4, P11802; remark: listed apart in the source
cdk6_human CDK6, Q00534 = variants of: B1; settings: with cdk6_human CDK6, Q00534
Chain of cdk6_human CDK6, Q00534 (Q00534 whole entry): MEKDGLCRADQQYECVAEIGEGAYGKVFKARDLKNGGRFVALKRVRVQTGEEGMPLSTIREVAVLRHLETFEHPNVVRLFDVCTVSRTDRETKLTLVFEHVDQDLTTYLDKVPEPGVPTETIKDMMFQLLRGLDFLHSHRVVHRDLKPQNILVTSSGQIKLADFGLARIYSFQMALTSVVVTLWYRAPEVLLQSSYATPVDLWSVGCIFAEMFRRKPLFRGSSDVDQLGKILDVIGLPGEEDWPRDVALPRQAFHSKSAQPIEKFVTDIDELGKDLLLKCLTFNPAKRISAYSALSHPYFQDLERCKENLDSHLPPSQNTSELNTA

Chain of cdk4_human CDK4, P11802 (P11802 whole entry): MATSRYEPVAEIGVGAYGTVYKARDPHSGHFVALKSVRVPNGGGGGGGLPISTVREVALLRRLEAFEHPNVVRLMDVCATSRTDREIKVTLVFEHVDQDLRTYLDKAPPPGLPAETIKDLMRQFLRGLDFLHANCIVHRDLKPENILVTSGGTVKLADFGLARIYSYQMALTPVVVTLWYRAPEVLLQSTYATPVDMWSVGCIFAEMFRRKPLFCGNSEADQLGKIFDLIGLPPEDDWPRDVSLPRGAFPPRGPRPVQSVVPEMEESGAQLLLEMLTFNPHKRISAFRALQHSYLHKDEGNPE

| effect of a mutation on the interaction (cdk4_human CDK4, P11802 [1]) | effect of a mutation on the interaction (cdk4_human CDK4, P11802 [2]) | effect of a mutation on the interaction (cdk6_human CDK6, Q00534) | Variant |
| --- | --- | --- | --- |
| disrupting interaction |  |  | R24P |
| disrupting interaction | disrupting interaction strength | disrupting interaction | A20P |

From IntAct's records for PubMed 17909018
